Source: PMC12781872, “Differential association of primary and alternative σ factors with RNA polymerase of Mycobacterium tuberculosis during transcription elongation” (Nucleic Acids Research, 2026)

Target: T1, Mycobacterium tuberculosis RNA polymerase core (α2ββ'ω), wildtype (Mycobacterium tuberculosis, UniProt P9WGZ1;P9WGY9;P9WGY7;P9WGY5)
T1 construct: also called Mtb RNAP core; unlabelled RNAP core; copies: 2 + + +
Test: native gel or EMSA
Settings: both partners purified

T1 sequence (P9WGZ1 whole entry, chain 1 of 4): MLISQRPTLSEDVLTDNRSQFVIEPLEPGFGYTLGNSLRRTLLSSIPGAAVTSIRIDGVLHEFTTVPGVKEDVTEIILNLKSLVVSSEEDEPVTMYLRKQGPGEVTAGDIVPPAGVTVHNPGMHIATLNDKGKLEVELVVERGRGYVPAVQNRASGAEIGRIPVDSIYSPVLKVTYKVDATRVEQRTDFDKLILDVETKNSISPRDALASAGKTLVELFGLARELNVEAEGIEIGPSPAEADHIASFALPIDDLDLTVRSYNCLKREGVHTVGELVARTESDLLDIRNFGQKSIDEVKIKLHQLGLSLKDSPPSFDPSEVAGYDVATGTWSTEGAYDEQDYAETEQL
T1 sequence (P9WGY9 whole entry, chain 2 of 4): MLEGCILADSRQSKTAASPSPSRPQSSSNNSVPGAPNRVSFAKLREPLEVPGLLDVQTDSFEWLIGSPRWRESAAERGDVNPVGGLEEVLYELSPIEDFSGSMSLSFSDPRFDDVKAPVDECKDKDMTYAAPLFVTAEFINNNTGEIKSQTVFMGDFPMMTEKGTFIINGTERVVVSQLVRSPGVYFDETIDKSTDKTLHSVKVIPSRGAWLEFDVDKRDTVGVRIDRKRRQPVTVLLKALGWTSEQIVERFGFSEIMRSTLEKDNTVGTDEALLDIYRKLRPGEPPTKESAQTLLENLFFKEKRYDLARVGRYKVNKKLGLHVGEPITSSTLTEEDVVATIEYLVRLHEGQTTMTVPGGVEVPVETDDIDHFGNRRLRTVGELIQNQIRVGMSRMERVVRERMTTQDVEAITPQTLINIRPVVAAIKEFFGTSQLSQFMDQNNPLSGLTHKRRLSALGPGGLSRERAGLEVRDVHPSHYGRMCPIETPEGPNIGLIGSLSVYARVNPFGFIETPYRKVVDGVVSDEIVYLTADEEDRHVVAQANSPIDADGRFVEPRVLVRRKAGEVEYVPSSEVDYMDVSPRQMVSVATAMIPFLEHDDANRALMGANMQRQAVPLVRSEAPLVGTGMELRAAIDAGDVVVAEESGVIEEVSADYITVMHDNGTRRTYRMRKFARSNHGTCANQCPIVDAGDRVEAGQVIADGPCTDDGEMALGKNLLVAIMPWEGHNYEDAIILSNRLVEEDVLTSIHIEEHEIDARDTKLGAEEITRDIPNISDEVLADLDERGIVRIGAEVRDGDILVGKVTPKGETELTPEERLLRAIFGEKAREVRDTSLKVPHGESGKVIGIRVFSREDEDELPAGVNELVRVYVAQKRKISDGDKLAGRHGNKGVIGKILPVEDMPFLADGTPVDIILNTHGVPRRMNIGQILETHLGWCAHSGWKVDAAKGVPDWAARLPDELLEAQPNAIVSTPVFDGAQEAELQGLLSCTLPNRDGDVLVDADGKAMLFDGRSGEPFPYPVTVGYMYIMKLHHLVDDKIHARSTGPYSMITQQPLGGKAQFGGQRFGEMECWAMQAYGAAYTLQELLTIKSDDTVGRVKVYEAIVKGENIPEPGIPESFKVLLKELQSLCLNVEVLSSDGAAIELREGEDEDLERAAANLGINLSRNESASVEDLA
T1 sequence (P9WGY7 whole entry, chain 3 of 4): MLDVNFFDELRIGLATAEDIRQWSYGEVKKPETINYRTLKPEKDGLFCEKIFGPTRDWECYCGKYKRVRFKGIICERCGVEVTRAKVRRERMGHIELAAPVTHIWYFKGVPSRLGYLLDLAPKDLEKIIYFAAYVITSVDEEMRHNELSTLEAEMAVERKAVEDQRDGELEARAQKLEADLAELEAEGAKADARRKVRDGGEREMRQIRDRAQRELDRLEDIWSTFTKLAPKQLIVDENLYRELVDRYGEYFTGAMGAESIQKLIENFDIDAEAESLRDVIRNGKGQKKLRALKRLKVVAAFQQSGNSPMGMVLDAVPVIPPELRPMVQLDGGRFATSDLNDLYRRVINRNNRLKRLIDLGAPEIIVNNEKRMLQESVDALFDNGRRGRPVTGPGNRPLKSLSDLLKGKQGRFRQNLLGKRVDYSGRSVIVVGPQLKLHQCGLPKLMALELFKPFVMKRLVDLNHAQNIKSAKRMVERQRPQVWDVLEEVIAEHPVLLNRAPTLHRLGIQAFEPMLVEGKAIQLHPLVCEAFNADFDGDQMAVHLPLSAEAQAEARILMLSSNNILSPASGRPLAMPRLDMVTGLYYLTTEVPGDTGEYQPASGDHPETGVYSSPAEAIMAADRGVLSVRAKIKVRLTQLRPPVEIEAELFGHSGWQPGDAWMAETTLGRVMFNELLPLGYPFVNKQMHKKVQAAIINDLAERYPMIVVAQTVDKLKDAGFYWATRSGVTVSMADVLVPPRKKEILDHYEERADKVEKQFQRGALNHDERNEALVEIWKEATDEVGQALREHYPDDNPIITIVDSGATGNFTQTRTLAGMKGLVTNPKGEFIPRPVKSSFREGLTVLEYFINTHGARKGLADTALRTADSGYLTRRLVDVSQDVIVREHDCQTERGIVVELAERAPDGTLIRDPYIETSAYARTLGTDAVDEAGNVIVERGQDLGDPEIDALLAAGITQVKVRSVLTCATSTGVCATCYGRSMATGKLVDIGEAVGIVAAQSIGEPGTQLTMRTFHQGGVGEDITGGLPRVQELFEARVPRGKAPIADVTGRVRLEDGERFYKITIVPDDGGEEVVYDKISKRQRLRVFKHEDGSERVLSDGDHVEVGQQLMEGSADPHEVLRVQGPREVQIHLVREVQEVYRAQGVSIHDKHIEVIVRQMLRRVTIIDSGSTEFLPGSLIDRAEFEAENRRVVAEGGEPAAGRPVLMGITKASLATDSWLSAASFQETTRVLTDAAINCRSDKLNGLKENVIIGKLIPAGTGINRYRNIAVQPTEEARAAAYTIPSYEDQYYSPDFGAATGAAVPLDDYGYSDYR
T1 sequence (P9WGY5 whole entry, chain 4 of 4): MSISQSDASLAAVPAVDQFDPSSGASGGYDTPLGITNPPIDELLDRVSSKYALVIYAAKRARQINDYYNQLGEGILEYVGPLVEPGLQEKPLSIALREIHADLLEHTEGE

B1: TMR-labelled Mtb σ^F (wild type, labelled at the natural cysteine, residue 47 of σ2) (natural protein)
chain: MTARAAGGSASRANEYADVPEMFRELVGLPAGSPEFQRHRDKIVQRCLPLADHIARRFEGRGEPRDDLIQVARVGLVNAAVRFDVKTGSDFVSFAVPTIMGEVRRHFRDNSWSVKVPRRLKELHLRLGTATADLSQRLGRAPSASELAAELGMDRAEVIEGLLAGSSYHTLSIDSGGGSDDDARAITDTLGDVDAGLDQIENREVLRPLLEALPERERTVLVLRFFDSMTQTQIAERVGISQMHVSRLLAKSLARLRDQLE
notes: also called TMR-labelled σ^F; σ^F labelled with TMR at region 2
fractional occupancy relative to RPo, at RPitc (usfXP1): ~96% | fractional occupancy relative to RPo, at TEC+17 (usfXP1): 89% | fractional occupancy relative to RPo, at TEC+23 (usfXP1): 87% | fractional occupancy relative to RPo, at TEC+28 (usfXP1): 83% | fractional occupancy relative to RPo, at TEC+64 (usfXP1): 82%

B2: Alexafluor-488 labelled Mtb σ^A (natural protein)
chain: MAATKASTATDEPVKRTATKSPAASASGAKTGAKRTAAKSASGSPPAKRATKPAARSVKPASAPQDTTTSTIPKRKTRAAAKSAAAKAPSARGHATKPRAPKDAQHEAATDPEDALDSVEELDAEPDLDVEPGEDLDLDAADLNLDDLEDDVAPDADDDLDSGDDEDHEDLEAEAAVAPGQTADDDEEIAEPTEKDKASGDFVWDEDESEALRQARKDAELTASADSVRAYLKQIGKVALLNAEEEVELAKRIEAGLYATQLMTELSERGEKLPAAQRRDMMWICRDGDRAKNHLLEANLRLVVSLAKRYTGRGMAFLDLIQEGNLGLIRAVEKFDYTKGYKFSTYATWWIRQAITRAMADQARTIRIPVHMVEVINKLGRIQRELLQDLGREPTPEELAKEMDITPEKVLEIQQYAREPISLDQTIGDEGDSQLGDFIEDSEAVVAVDAVSFTLLQDQLQSVLDTLSEREAGVVRLRFGLTDGQPRTLDEIGQVYGVTRERIRQIESKTMSKLRHPSRSQVLRDYLD
notes: also called AF488 labelled σ^A; σ^A-488
fractional occupancy relative to RPo, at RPitc (sinP3): ~95% | fractional occupancy relative to RPo, at TEC+16 (sinP3): 77% | fractional occupancy relative to RPo, at TEC+23 (sinP3): 72% | fractional occupancy relative to RPo, at TEC+29 (sinP3): 63% | fractional occupancy relative to RPo, at TEC+59 (sinP3): 49%

B3: TMR-labelled Mtb σ^E used in EMSA and anisotropy assays (natural protein)
chain: MELLGGPRVGNTESQLCVADGDDLPTYCSANSEDLNITTITTLSPTSMSHPQQVRDDQWVEPSDQLQGTAVFDATGDKATMPSWDELVRQHADRVYRLAYRLSGNQHDAEDLTQETFIRVFRSVQNYQPGTFEGWLHRITTNLFLDMVRRRARIRMEALPEDYDRVPADEPNPEQIYHDARLGPDLQAALASLPPEFRAAVVLCDIEGLSYEEIGATLGVKLGTVRSRIHRGRQALRDYLAAHPEHGECAVHVNPVR
notes: also called TMR-labelled σ^E; labelled σ^E
fractional occupancy relative to RPo, at RPitc (sigB): ~93% | fractional occupancy relative to RPo, at TEC+15 (sigB): 55% | fractional occupancy relative to RPo, at TEC+23 (sigB): 47% | fractional occupancy relative to RPo, at TEC+27 (sigB): 45% | fractional occupancy relative to RPo, at TEC+84 (sigB): 38%
